{
  "source": "paper PMC7801465",
  "origin": "cited, not measured here",
  "target": "SARS-CoV-2 spike (SARS-CoV-2) (UniProt P0DTC2)",
  "data": [
    {"substance": "Basigin (from UniProt P35613)", "values": [
      {"measurement": "Kd", "result": 185, "unit": "nM"}
    ]}
  ]
}
